From patent US20100286365

Columns and labels:
[1] = system: GLP-1(7-37)-GG-(S)-2,6-diamino-1-(thiazolidin-2-cyano-3-yl)hexan-1-one amide
[2] = system: GLP-1(7-37)-GG-(S)-2,6-diamino-1-(thiazolidin-3-yl)hexan-1-one amide
GLP-1(7-37)-GG-(S)-2,6-diamino-1-(thiazolidin-3-yl)hexan-1-one amide, sequence (chain, as listed by the source): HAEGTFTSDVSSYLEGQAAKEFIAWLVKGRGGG

GLP-1, sequence (chain, as listed by the source): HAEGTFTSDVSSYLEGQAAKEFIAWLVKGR

Recombinant DPP-IV was tested, and the “hydrolysis catalyzed by DPP-IV (mass spectrometry)” value [1] was “the expected product ions were not observed, indicating that these two compounds are DPP-IV resistant under the test conditions”, the “percentage of hydrolysis catalyzed by DPP-IV (mass spectrometry)” value (GLP-1) was “the DPP-IV catalyzed cleavage afforded the GLP-1 (9-36) product in 17% yield” and the “hydrolysis catalyzed by DPP-IV (mass spectrometry)” value [2] was “the expected product ions were not observed, indicating that these two compounds are DPP-IV resistant under the test conditions”.
